Columns and labels:
Experiment in all cases: cell-based or functional assay
[1] = target: T1, hMPV F protein of hMPV CAN/97-83 (genotype A) (human metapneumovirus, UniProt Q6WB98 19-539)
[2] = target: T2, hMPV F protein of hMPV TN/93-32 (genotype B) (human metapneumovirus)
[3] = target: T1, hMPV F protein of hMPV CAN/97-83 …; remark: listed apart in the source
[4] = target: T2, hMPV F protein of hMPV TN/93-32 …; remark: listed apart in the source

T1 sequence (Q6WB98 19-539): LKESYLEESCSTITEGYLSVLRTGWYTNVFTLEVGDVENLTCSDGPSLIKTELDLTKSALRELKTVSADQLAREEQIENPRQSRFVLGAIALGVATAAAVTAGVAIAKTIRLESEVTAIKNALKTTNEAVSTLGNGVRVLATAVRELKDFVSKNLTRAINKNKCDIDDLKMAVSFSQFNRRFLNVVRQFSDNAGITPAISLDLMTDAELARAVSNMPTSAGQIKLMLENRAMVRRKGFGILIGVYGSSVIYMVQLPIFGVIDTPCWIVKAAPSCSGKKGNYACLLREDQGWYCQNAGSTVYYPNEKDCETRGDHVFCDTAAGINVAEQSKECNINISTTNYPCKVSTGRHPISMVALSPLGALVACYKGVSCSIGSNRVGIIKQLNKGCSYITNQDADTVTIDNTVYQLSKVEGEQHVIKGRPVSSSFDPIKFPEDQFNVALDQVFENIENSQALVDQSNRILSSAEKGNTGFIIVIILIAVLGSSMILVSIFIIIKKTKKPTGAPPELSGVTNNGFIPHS

Row | Binder | neutralizing activity, plaque-reduction assay [1] | neutralizing activity, plaque-reduction assay [2] | IC50, plaque-reduction neutralization of hMPV CAN/97-83 [3] | IC50, plaque-reduction neutralization of hMPV TN/93-32 [4] | fold lower neutralization IC50 than against hMPV TN/93-32 [1]
1 | MPV467 (antibody, V domains shown) VH: EVQLVESGGGVVRPGTSLRVSCAAFDFNFRDYGMHWVRQAPGKGLEWVAGIWYDGSNKDYADSVKGRFTISRDNSQNTLYLQMNSLRVEDTAVYYCARDPRTHREGALSHFDSWGQGTLVTVSS VL: PNELTQDPAVSVALGQTVRITCQGDSLRNYFAGWYQQKPGQAPLLVLYGENIRPSGIPDRFSGSSSGNTVSLTITGAQAEDEADYYCNSRDNSGNHWVFGGGTRLTVL | < 20 ng/mL | < 1 ng/mL | 5 ng/mL | 0.6 ng/mL | –
2 | MPV481 (antibody, V domains shown) VH: EVQLVQSGGGLVKPGGSLRLSCAASGLPFNNAWMNWVRQAPGKGLEWVGRIKSKIDGGTTEYAAPVKGRFTISRDDSENTLYLQMNSLRTEDTAVYYCTTEYYALLSGNYSDCWGQGTLVTVSS VL: DIVMTQSPFSLSLSPGERATLSCRASQSIKRAYLGWYQQKPGQAPRLLIYGASNRATGIPDRFSGSGSGTDFTLTISRLEPEDFAVYYCQQYGDSPGGSFGQGTKLEIR | – | – | 96 ng/mL | 260 ng/mL | –
3 | MPV486 (antibody, V domains shown) VH: EVQLVESGGHLVQSGGSLRLSCAASGFTFSNYILNWVRQAPGKGLEWISYITGGSSAIYYADSVKGRFTISRDDAKNSLYLQMNNLRAEDTAVYYCARSHGYDSSGYYYYFAMDVWGQGTTVTVSS VL: QSVLTQPPSASGTPGQRVTISCSGSNSNIESNTVNWYQQIPGTAPKLLIYSDNRRPSGVPDRFSGSKSGTSASLAISGLQSEDEADYYCAAWDDSLIGYVFGTGTKVTV | – | – | 510 ng/mL | 62 ng/mL | –
4 | MPV477 (antibody, V domains shown) VH: EVQLVQSGAEVKKPGASVEVSCKTSGYTFTDYYLHWVRQAPGQGLEWMGWINPRSGGTKYGQKFQGRVTMTRDTSISTAYMDLRGLRSDDTAVYYCARAPLLTVYAVAHRSGENRFDPWGQGTVTVSS VL: QPPSLSGAPGQTVTISCTGSGSNIGAGYDVNWYQCLPGTAPKLLMFDNSNRPSGVPDRFSGSRSGASASLAITGLQAEDEADYYCQSYDSGLSGWVFGGGTKLTVL | – | – | 54 ng/mL | 2900 ng/mL | ≥ 20 fold
5 | MPV478 (antibody, V domains shown) VH: EVQLVQSGAEVKKPGASVKVSCNASGYTFTGYYIHWVRQAPGQGLEWMGWINPRSGGTNYAQKFQGRVTLTRDTSITTAYMDVTRLRPDDTAVYYCATTREGIVLMPRGRGDDALDTWGQGTTVIVSS VL: DIVMTQSPVSLTVSLGERATINCKSSQSVLSTSNNENYLAWYQQKPGQPPNLLIYWASTRESGVPDRFSGSGSGTDFTLTISSLQAEDVAVYYCQQYFATPITFGPGTKVDVK | – | – | 210 ng/mL | 68 ng/mL | –
6 | MPV454 (antibody, V domains shown) VH: EVQLVESGGGLVKPGGSLRLSCSTSGFVFSSYAMHWVRQAPGKGLEHVSAISSTGDNTHYADSVKGRFTISRDNSRGRLYLQMTSVRPEDAALYYCVKDLYSGRFYYFLDDWGQGTRIIVSS VL: DIQVTQSPSSLSASVGDRVTISCRASQNISNYLNWFQQRPGKAPKLLIYVASTLQSGAPSRFSGSGSGTDFTLTITDLQPEDFATYYCQQSYNTPPITFGQGTRLEIK | < 20 ng/mL | – | 2 ng/mL | 25 ng/mL | –
7 | MPV86 (antibody, V domains shown) VH: QVQLVQSGAEVKKPGSSVKVSCKASGDTFNDVALSWVRQAPGQGLEWLGGIIPFFGTANYAQRFQDRVTITADASTSTAYLELGGLRSEDTAVYYCARGWSCRNITCFMMGYYFYIMDVWGQGTLVTVSS VL: LSLSPGERATLSCRASQSVGNFLAWYQQKPGQTPRLLIQDASNRATGIPARFSGTGSGTDFTLTISSLEPEDFAVYYCQQRSNWPPTFGPGTKVDIK | – | – | 57 ng/mL | 1800 ng/mL | ≥ 20 fold
8 | MPV485 (antibody, V domains shown) V domain 1: EVQLQEPGPGLVKPSETLSLTCTVSGGSISSTNSFWGWVRQPPGKGLEWIGSIYYSGTTYYNSSLKSRVTISVDTSKNQFSLRLSSVTAADTAVYYCARQGLTSSWYDGSGLDVWG V domain 2: SYELTQPPSVSVSPGQTASITCSGDKLGNKYACWYQQRPGQSPVLVIYQDTKRPSGIPERFSGSNSGNTATLTISGTQAMDEADYYCQAWDSNTVVFGGGTKLTVL | – | – | 91 ng/mL | 2600 ng/mL | ≥ 20 fold
9 | MPV487 (antibody, V domains shown) VH: EVQLLESGGGLVQPGRSLRLSCTASGFTFDDYAMHWVRQLPGKGLEWVSGISWNSDNIGYADSVKGRFTISRDNGKNSLYLQMNSLRAEDTAFYYCAKDVRIDYDLLIGHIDYWGPGTLVTVSS VL: TQSPVTLSLSPGERATLSCRASQSFGGYCAWYQQKPGQSPRLLIYDASNRATGVPARFSGSGSGTDFTLTISSLEPEDSAVYFCQQRGNWPIFGQGTRLEI | < 20 ng/mL | – | 3 ng/mL | 12 ng/mL | –
10 | MPV414 (antibody, V domains shown) VH: QVQLVQSGPEVKKPGSSVMVSCKTSGGNFNNFAISWVRQAPGQGLEWMGGIVPIFGTANYAQKSQDRVTITADPSSSTAYLQLSSLTSDDTAIYYCARDLGRSSNYYYYSVFESWGQGTLVTVSS VL: DIVMTQSPATLSLSPGERATLSCRASQSVGDKLAWYQQKPGQAPRLLIYGASTRATDIPARFSGSGSGTEFTLTVSSLQPEDFAVYYCQQYENWPPITFGQGTRLEIK | – | – | 44 ng/mL | 590 ng/mL | –
11 | MPV456 (antibody, V domains shown) VH: QVQLQESGPGVVKPSGTLSLTCGVSGGSISSSYWWSWVRQPPGKGLEWIGEIYHSGSTNYNPSLKRRVTISVDKSKNQFSLKVTSVTAADTAVYYCARGPIQYYDILTEERVGYCDYWGQGTLVTVSS VL: TLSASVGDRVTITCRASQSISSWLAWFQQKPGKAPKLLIYKTSSLESGVPSRFSGSGSGTEFTLTISSLQPDDFATYYCQEYNSYSRTFGQGTKVEIK | – | – | 450 ng/mL | 810 ng/mL | –
12 | MPV491 (antibody, V domains shown) VH: QVQLQESGPGLVKSSQTLSLTCTVSGGSISSVTSHWTWIRQHPGKGLEWIGYIFSSGTTYYSPSLRSRLTMSVDTSKNQFSLQLSSVTAADTAMYYCARGIYCGDSCYKGTDYWGRGTLVTVSS VL: IRLMTQTPVTLPVTPGEPASISCRSSQSLLHSNGYNYLDWYLQKPGQSPQLLIYRGSTRASGVPDRFSGSGSGTEFTLKISRVEAEDVGVYYCMQGLQTPYTFGQGTKLESR | – | – | 5700 ng/mL | 1900 ng/mL | –
13 | MPV482 (antibody, V domains shown) VH: EVQLVQSGGGVVQPGRSLRLSCAASGFTFSSFAMHWVRQAPGKGLEWVALISDDGNNKYHADSVKGRFTISRDSSKNTLYLQMNSLRGEDTAVYYCARDGSVVGAAAHCDHWGQGTLVTVSS VL: SYELTQPPSVSVSPGQTARITCSGDALPNQCAYWYQQKPGLAPVLLIYKDKERPSGIPERFSGSISGTTVTLTISGVQAEDEADYYCQSSDSSSTVVFGGGTKLTVL | < 20 ng/mL | – | 14 ng/mL | 47 ng/mL | –
14 | MPV488 (antibody, V domains shown) VH: EVQLVQSGFEVKKPGASVKVSCKASGYNFNNYGISWVRQAPGQGLEWMGWISAYTGNTNEAQKFQGRVSMTTDTSTSTAYMEVRSLRSDDTAVYYCARDIGSSMFYSYFYGMDVWGQGTTVIVSS VL: SLSVSLGERATINCKSSESVLYNSNNENYLDWYQQKPGQPPKLLIYWASTRASGVPDRFSGSASGTDFTLTISSLQAEDVAVYYCQQYYSTPRTFGQGTKVEIK | < 20 ng/mL | – | 18 ng/mL | 2400 ng/mL | ≥ 20 fold
15 | MPV489 (antibody, V domains shown) VH: EVQLLESGGGLVQPGGSLRLSCAASKFTFNNYEMNWLRQAPGKGLEWVSSISSSGDTIHNADSVKGRFIISRDNAKNSLHLQMNGLRAEDTAVYYCARAGSGWAYDAFDIWGLGTMVTVSS VL: LSASVGDRVTITCRASQSISSFLNWYQQKPGKAPKLLMYAASSLPVGVPSRFSGSGSGPEYTLTISNLQPEDFATYYCQQGYSSPPTFGGGTRLEVK | – | – | 3600 ng/mL | 2300 ng/mL | –
16 | MPV464 (antibody, V domains shown) VH: QVQLQESGPGLVKPSQTLSLTCTVSGGSVRGGGDYWSWIRRPPGKGLEWIGHIYNSGTTFYNPSLKSRVTISIDTSKNQFSLKLRSVTAADTAVYYCGRVGSRATGLPDWIDPWGQGTLVTVSS VL: SYELTQPPSVSVSPGQTATITCSGTNLGAKYSCWYQQKPGQSPVLVIFQDNKRASGIPARFSASTSGDTATLTISGTQVMDEADYFCQAWDSRTAVFGGGTTLTVL | – | – | 140 ng/mL | 400 ng/mL | –
17 | MPV483 (antibody, V domains shown) VH: EVQLVQSGAELKKPGSSVKVSCKASGDTFSNYAISWVRQAPGQGLEWMGGIIPIYNTANYAQKFQGRVTLTADESTSTAYMELSSLRSEDTAVYYCARDVRNNWSVLRGARYYYYGMDVWGQGTTVTVSS VL: DIVMTQTPFSLSASVGDRVTVTCRASQDISNSLAWFQQKPGKAPKSLIYAASSLQSGVPTRFSGGGSGTDFTLTISSLQPEDFATFYCLQYDSFPPTFGGGTKVEI | – | – | 32 ng/mL | 110 ng/mL | –

Source: patent US20250188153A1 (UNIVERSITY OF GEORGIA RESEARCH FOUNDATION, published 2025)
